According to paper PMC10713844, “Characterization of the enzyme kinetics of EMP and HMP pathway in Corynebacterium glutamicum: reference for modeling metabolic networks” (Frontiers in Bioengineering and Biotechnology, 2023):

How the values were obtained:
Assay in all cases: initial-rate kinetics, Michaelis-Menten fit
Type in all cases: biochemical, Corynebacterium glutamicum
Details in all cases: PBS with 0.5 mM MgCl2, pH 7.4, 37 °C
[1] = substrate: O=C(O)[C@@H](CO)OP(=O)(O)O
From the text: initial-rate kinetics, Michaelis-Menten fit on ENO (enolase; ENO-Y)

[2] = substrate: O=C[C@H](O)COP(=O)(O)O
From the text: initial-rate kinetics, Michaelis-Menten fit on TAL (transaldolase)

[3] = substrate: O=C(CO)COP(=O)(O)O
From the text: initial-rate kinetics, Michaelis-Menten fit on TPI (triosephosphate isomerase)

[4] = substrate: O=C(O)[C@H](O)COP(=O)(O)O
From the text: initial-rate kinetics, Michaelis-Menten fit on PGMA / PMGA / pgma (phosphoglycerate mutase)

[5] = substrate: O=C[C@H](O)COP(=O)(O)O; remark: listed apart in the source
From the text: initial-rate kinetics, Michaelis-Menten fit on GAPDH (glyceraldehyde 3-phosphate dehydrogenase)

[6] = substrate: O=C(CO)[C@H](O)[C@H](O)COP(=O)(O)O
From the text: initial-rate kinetics, Michaelis-Menten fit on RPE (ribulose-5-phosphate 3-epimerase)

[7] = substrate: O=C(CO)[C@H](O)[C@H](O)COP(=O)(O)O; remark: listed apart in the source
From the text: initial-rate kinetics, Michaelis-Menten fit on RPI (ribose-5-phosphate isomerase)

[8] = substrate: Nc1ncnc2c1ncn2[C@@H]1O[C@H](COP(=O)(O)OP(=O)(O)OP(=O)(O)O)[C@@H](O)[C@H]1O
From the text: initial-rate kinetics, Michaelis-Menten fit on GLK (glucokinase)

B1: ENO (enolase; ENO-Y) (Corynebacterium glutamicum ATCC 13032) (protein)
chain: MAEIMHVFAREILDSRGNPTVEAEVFLDDGSHGVAGVPSGASTGVHEAHELRDGGDRYLGKGVLKAVENVNEEIGDELAGLEADDQRLIDEAMIKLDGTANKSRLGANAILGVSMAVAKAAADSAGLPLFRYIGGPNAHVLPVPMMNIINGGAHADSGVDVQEFMIAPIGAETFSEALRNGAEVYHALKSVIKEKGLSTGLGDEGGFAPSVGSTREALDLIVEAIEKAGFTPGKDIALALDVASSEFFKDGTYHFEGGQHSAAEMANVYAELVDAYPIVSIEDPLQEDDWEGYTNLTATIGDKVQIVGDDFFVTNPERLKEGIAKKAANSILVKVNQIGTLTETFDAVDMAHRAGYTSMMSHRSGETEDTTIADLAVALNCGQIKTGAPARSDRVAKYNQLLRIEQLLGDAGVYAGRSAFPRFQG
Km [1]: 60 ± 10 µM

B2: TAL (transaldolase) (Corynebacterium glutamicum ATCC 13032) (protein)
chain: MSHIDDLAQLGTSTWLDDLSRERITSGNLSQVIEEKSVVGVTTNPAIFAAAMSKGDSYDAQIAELKAAGASVDQAVYAMSIDDVRNACDLFTGIFESSNGYDGRVSIEVDPRISADRDATLAQAKELWAKVDRPNVMIKIPATPGSLPAITDALAEGISVNVTLIFSVARYREVIAAFIEGIKQAAANGHDVSKIHSVASFFVSRVDVEIDKRLEAIGSDEALALRGKAGVANAQRAYAVYKELFDAAELPEGANTQRPLWASTGVKNPAYAATLYVSELAGPNTVNTMPEGTIDAVLEQGNLHGDTLSNSAAEADAVFSQLEALGVDLADVFQVLETEGVDKFVASWSELLESMEARLK
Km [2]: 290 ± 80 µM | Vmax [2]: 6.44 µmol/min/mg | kcat [2]: 4.24 ± 0.47 s⁻¹

B3: TPI (triosephosphate isomerase) (Corynebacterium glutamicum ATCC 13032) (protein)
chain: MARKPLIAGNWKMNLDHQQAIGTVQKLAFALPKEYFEKVDVAVTVPFTDIRSVQTLVEGDKLEVTFGAQDVSQHESGAYTGEVSASMLAKLNCSWVVVGHSERREYHNESDELVAAKAKAALSNGISPIVCVGEPLEIREAGTHVEYVVEQTRKSLAGLDAAELANTVIAYEPVWAIGTGKVASAADAQEVCKAIRGLIVELAGDEVAEGLRILYGGSVKAETVAEIVGQPDVDGGLVGGASLDGEAFAKLAANAASVA
Km [3]: 5430 ± 160 µM | Vmax [3]: 160 µmol/min/mg | kcat [3]: 75.7 ± 2.11 s⁻¹

B4: PGMA / PMGA / pgma (phosphoglycerate mutase) (Corynebacterium glutamicum ATCC 13032) (protein)
chain: MTNGKLILLRHGQSEWNASNQFTGWVDVNLTEQGEAEAKRGGELLVEAGVLPGVVYTSLLRRAIRTANIALNAADRHWIPVIRDWRLNERHYGALQGLDKAATKEKYGDDQFMEWRRSYDTPPPELADDAEYSQANDPRYADLDVVPRTECLKDVVVRFVPYFEEEILPRAKKGETVLIAAHGNSLRALVKHLDGISDADIAELNIPTGIPLVYEIAEDGSVVNPGGTYLDPEAAAAGAAAVANQGNK
Km [4]: 4440 ± 320 µM | Vmax [4]: 43.2 µmol/min/mg | kcat [4]: 20.4 ± 1.05 s⁻¹

B5: GAPDH (glyceraldehyde 3-phosphate dehydrogenase) (Corynebacterium glutamicum ATCC 13032) (protein)
chain: MTIRVGINGFGRIGRNFFRAVLERSDDLEVVAVNDLTDNKTLSTLLKFDSIMGRLGQEVEYDDDSITVGGKRIAVYAERDPKNLDWAAHNVDIVIESTGFFTDANAAKAHIEAGAKKVIISAPASNEDATFVYGVNHESYDPENHNVISGASCTTNCLAPMAKVLNDKFGIENGLMTTVHAYTGDQRLHDAPHRDLRRARAAAVNIVPTSTGAAKAVALVLPELKGKLDGYALRVPVITGSATDLTFNTKSEVTVESINAAIKEAAVGEFGETLAYSEEPLVSTDIVHDSHGSIFDAGLTKVSGNTVKVVSWYDNEWGYTCQLLRLTELVASKL
Km [5]: 1470 ± 110 µM | Vmax [5]: 15.7 µmol/min/mg | kcat [5]: 9.71 ± 0.36 s⁻¹

B6: RPE (ribulose-5-phosphate 3-epimerase) (Corynebacterium glutamicum ATCC 13032) (protein)
chain: MAQRTPLIAPSILAADFSRLGEQVLAVPDADWIHVDIMDGHFVPNLSFGADITAAVNRVTDKELDVHLMIENPEKWVDNYIDAGADCIVFHVEATEGHVELAKYIRSKGVRAGFSLRPGTPIEDYLDDLEHFDEVIVMSVEPGFGGQSFMPEQLEKVRTLRKVIDERGLNTVIEIDGGISAKTIKQAADAGVDAFVAGSAVYGAEDPNKAIQELRALAQ
Km [6]: 2810 ± 1250 µM | Vmax [6]: 430 µmol/min/mg | kcat [6]: 179 ± 22.2 s⁻¹

B7: RPI (ribose-5-phosphate isomerase) (Corynebacterium glutamicum ATCC 13032) (protein)
chain: MRVYLGADHAGFETKNAIAEHLKAHGHEVIDCGAHTYDAEDDYPAFCIEAASRTVNDPGSLGIVLGGSGNGEQIAANKVKGARCALAWSVETARLAREHNNANLIGIGGRMHSEEEALAIVDAFLEQEWSNAERHQRRIDILADYERTGIAPVVPNE
Km [7]: 420 ± 60 µM | Vmax [7]: 11.2 µmol/min/mg | kcat [7]: 3.39 ± 0.22 s⁻¹

B8: GLK (glucokinase) (Corynebacterium glutamicum ATCC 13032) (protein)
chain: MPQKPASFAVGFDIGGTNMRAGLVDESGRIVTSLSAPSPRTTQAMEQGIFDLVEQLKAEYPVGAVGLAVAGFLDPECEVVRFAPHLPWRDEPVREKLENLLGLPVRLEHDANSAAWGEHRFGAAQGADNWVLLALGTGIGAALIEKGEIYRGAYGTAPEFGHLRVVRGGRACACGKEGCLERYCSGTALVYTARELASHGSFRNSGLFDKIKADPNSINGKTITAAARQEDPLALAVLEDFSEWLGETLAIIADVLDPGMIIIGGGLSNAADLYLDRSVNHYSTRIVGAGYRPLARVATAQLGADAGMIGVADLARRSVVEAN
Km [8]: 810 ± 80 µM | Vmax [8]: 37.7 µmol/min/mg | kcat [8]: 22.2 ± 1.07 s⁻¹
